Measurements: the nanobody polyreactivity screen of Harvey et al. (2022)

Assay: yeast display, Sf9 membrane polyspecificity reagent, FACS + sequencing; frameworks hold sequencing errors
Outline: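 Genes from sorted yeast were amplified by colony PCR, read by MiSeq 2 × 250 sequencing and filtered on CDR length. These cells carried a synthetic nanobody library in Saccharomyces cerevisiae BJ5465 and were sorted by FACS into low and high (top ~1%) gates on anti-HA and streptavidin fluorescence. Polyreactivity is labelled according to the gate of origin.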

Sequence | polyreactivity (PSR sort gate)
QVQLVESGAGLVQAGGSLRLSCAASGLIFGTDAMGLYRQAPGKESELVAAITSGGRTYYADSVKGRFTISRDNAKNTVYLQLISLKPEDTAVYYCAAEGWWNDTPYDYWGQVTQVTVSS | low polyreactivity
QVQLVESGAGLVQAGGSLRLSCAASGLILGVYTMGWYRQAPGTEREFVASINYGGGSTYYADSVKGRFTISRDNAKNTVYLQMNSLKPEDTAVYYCNARSRWGGTRLYSYDYWGQGTKVTVSS | low polyreactivity
QVQLVESGAGLVQAGGSLRLSCAASGLTFEWYAMGWYRPAPGKERELVAAISWNGGSTYYADSVKGRFTISRDNAKNTVYLQMNSLKPEDTAVYYCATSSPRRYYWGQGTQVTVSS | high polyreactivity
QVQLVESGAGLVQAGGSLRLSCAASGLTFVFYAMGWYRQAPGKERELVAAISSSGGSTNYADSVKGRFTISRDNAKNTVYLQMNSLKPEDTAVYYCAAETVSWYRYYYRGQGTQVTVSS | high polyreactivity
QVQLVESGAGLVQAGGSLRLSCAASGLTIYVNAMGWYGQAPGKERELVATISGSGSTNYADSEKGRFTISRDDAKNTVYLQMNSLKPEDTAVYYCNAGWAQDPSNYWGQGTQVNVSS | low polyreactivity
QVQLVESGAGLVQAGGSLRLSCAASGRIFGYYAMGWYRQAPGQERELVATIRGGGSTNYADSVKGRFTISRDNAKNTVYLQMNSLKPEDTAVYVCAKPGAKWRGFDYWGQGTQVTLSS | low polyreactivity
QVQLVESGAGLVQAGGSLRLSCAASGRIFPDNTMGWYRQAHGKERELVAVITYSGGSTYYADSVKGRFTISRDNAKNTVYLQMNSLKPEDTAVYYCAADFGFQLKMYYWGQGTQVTVSS | low polyreactivity
QVQLVESGAGLVQAGGSLRLSCAASGRIFTFNTMGWYRQAPGKERELVAAITSSSARTYYADSVKGRFTISRYNAKNTVYLQMNSLKPEDTAVYYCATRDWVGSVRMGYWGQGTQVTVSS | high polyreactivity
QVQLVESGAGLVQAGGSLRLSCAASGRILHEYAMGWYRQAPGKERELVAAITFSGTSTYYADSVKGRFTISRDNAKNSVYLQMNSLKPEDTAVYYCAADTYGGSRDYWGQGTQVTVSS | low polyreactivity
QVQLVESGAGLVQAGGSLRLSCAASGRTFIGNAMGWYRQAPGKERELVAAISSSGGNTYYADSVKGRFTISRDNAKNTVYLQMNSLKPEDTAVYYCAVEVRTFVTYGRREYYWGQGTQVTVSS | high polyreactivity
QVQLVESGAGLVQAGGSLRLSCAASGRTFINNVMGWYRQAPGKERELVAAINSGSSTKYADSVKRRFTISRDNAKNTVYLQMNSLKPEDTAVYYCAAELWYFSEIGRMDYWGQGTIVTVSS | high polyreactivity
QVQLVESGAGLVQAGGSLRLSCAASGRTFPYYVMGWYRQAPGKERELVAAIRRTGGSTYYADSVKGRFTISRDNAKNTVYLQMNSLKPEDTAVYYCTQRHSILYEGGYDYWGQGTQVTVSS | low polyreactivity
QVQLVESGAGLVQAGGSLRLSCAASGRTFSGYAMGWYRQAPGKERELVASITWSGGSTYYADSVKGRFTISRDNAKNTVYLQMNSLKPDDTAVYYCARDSPRGRVGFNYWGQGTQVTVSS | low polyreactivity
QVQLVESGAGLVQAGGSLRLSCAASGRTFYWYVMGWYRQAPGKERELVAAITQTGSSTYYADSVKGRFTISRDYAKNTVYLQMNSLKPEDTAVYYWAAEASSVPGYDYWGQGTQVTVSS | low polyreactivity
QVQLVESGAGLVQAGGSLRLSCAASGSAFYVYARGWYTQAPGKERELVAAIRGGGSTNYADSVKGRFTISRDNAKNTFYLQMNSLKPEDTAVYDCAARYRSPRYRPSGYSYNYWGQGTQVTVSS | high polyreactivity
QVQLVESGAGLVQAGGSLRLSCAASGSIFDHYAMGWYRQAPGKERELVAAISSSGGSTYYADSVKGRFTISRDNAKNTVYLQMNSLKPEDTAVYSCAARAGYTRYGYWGQGTQVTVSS | high polyreactivity
QVQLVESGAGLVQAGGSLRLSCAASGSIFPRYAMGWYRQAPWTERELVAAITNGGSTDYADSVKGRFTISRDNAKNTVYLQMNSLKPEDTAVYYCAADLAVGIYPEDGEYWGQGTQVTVSS | low polyreactivity
QVQLVESGAGLVQAGGSLRLSCAASGSIFTENSMGWYRQAPGKEREMVAAIRWDDGHTYYADSVKGRFTISRDNAKNTVYLQMNSLKPEDTAVYYCNADKWSSTDDWLYDYWGQGTQVTVSS | low polyreactivity
QVQLVESGAGLVQAGGSLRLSCAASGSTFYRYVMGWYRQAPGKERELVAAISGSGVRTYYADSVKGRFTISRDNAKNTVYLQMHSLKPEATAVYYCAASVRSRSQTYLRYDYWGQGTQVTVSS | high polyreactivity
QVQLVESGAGLVQAGGSLRLSCAATGSIVDWYVMGWYRQAPGKERELVAAITSTGSTYYADSVKGRFTISRDNAKNPVYLQMNSLKPEDTAVYYCATSFYVYPTYYIMDYWGQGTQVTVSS | low polyreactivity
QVQLVESGAGLVQAGGSLRLSCAPSGFIFFVNAMGWYRQAPGKERELVADITKIDGTTYYADSVKGRFTISRDNAKNTVYLQMNSLKPEDTAVYYCAAGYRQLSSVRDYDYWGQGTQVTVSS | low polyreactivity
QVQLVESGAGLVQAGGSLRLSCAPSGSIFAAYAMGWYRQAPGKESELVAAIDRGGSTDYADSVKGRFTISRDNAKNTVYLQMNTLKPEDTAVYYCAKGYDYYVRRYYYWGQGTQVTVSS | high polyreactivity

Sequence | polyreactivity (PSR sort gate)
QVQLVESGAGLVQAGGSLRLTCAASARILGAYAMGWYRQAPGKERELVASISSGGRTYYADSVKGRFTISRDNAKNTVYLQMNSLKPEDTAVYYCNRDRNSGFYRRYGYWGQGSQVTVSS | high polyreactivity
QVQLVESGAGLVQAGGSLRRSCAASGGNFYYNVMGWYRQAPGKERELLAAIDTSGGNRYADSVKGRFTISRDNAKNTVYLQMNSLNPEDTAVYYSAVGAYWYFGIVSYGYDYWGQGTQVTVSS | low polyreactivity
QVQLVESGAGLVQAGGSRRLSCAASGFTFKSYAMGLYRQAAGKERELVAAINRSGGSTYYADSVKGRFTISRDYAMNTVYLQMNSLSPDDTAVYYCAAVKPPDYYYWGQGTQVTVSS | high polyreactivity
QVQLVESGAGLVQAGRSLRLSCASSGITIKRYAMGWYSQAPGKESELVAAINFGAGNTYYADSVKGRFTISRDNAKNPVYLQMNSLKPEDSAVYYCATTARHRYGEYYYWGLGTQVTVSS | high polyreactivity
QVQLVESGAGLVQARGSLRLTCAASGGTFLSYAKGWYRQAPGKERELVAGISSGGSTNYADSVKGRFTISRDNAKNTVYLQMNSLKPEDTAVYYCAADSFPSEFDYWGQGTQVTVSS | low polyreactivity
QVQLVESGEGIVQAGGSLRLSCAASGSIFGIYVMGWYRQAPGKERELVAAITFGGGSTYYADSVKGRFTISRYNAKNSVYLKMNRLKPEDTSVYYCAAKSYDEGLYRRPRDYWGQGTQVTESS | high polyreactivity
QVQLVESGEGLVQAGGSLRLSCAASGRIFAWYAMGWYRQAPGKERELVAAIDRGDNTYYADSVKGRFTISRDNAKNTGYLQMNSLKPEDTAVYYGFYYGAHEPYGYWGQGTQVTVSS | low polyreactivity
QVQLVESGGAIVQAGGSLRLSCAASGRIYYPYAMGWYRQAPGKERELVAAISSGVSTNYADSVKGRFTITRDNAKNTVYLQMNSLNPEDTAVYYCARTYFRFSSSYYKAVSHGFWGQGTQVTVSS | high polyreactivity
QVQLVESGGALLQAGGSLRLSCAASGRTFPGYGMGWYRQAPGKERELVAVITSNGGITYYADSVKGRFTISRDNAKNTVYLQMNSLKPEDTAVYYCAAYEIYYEFDSWGQGTQVTVSS | low polyreactivity
QVQLVESGGALVHAGGSLRLTCAASGYTFRYYAMRWYRQAPGKERELVARINRSGGSTYYADSVKGRFTISRDNAKNTVYLQMNSLKPEDTAVYYCNRDYGWHYSYEYWGQGTQVTVSS | high polyreactivity
QVQLVESGGALVQAGCSLRLSCAASGITFAPYAKGWYRQAPGKEREMVAGINTGGSTYYADSVKGRFTISRDNAKYTVYLQMNSLKPEDTADYYCATESYPADQDIPGSDYWGQGTQVTVSS | low polyreactivity
QVQLVESGGALVQAGGSHRLSCAASGIIFDYNAAMGWYRQAPGKERELVAAISISGGSTYYADSVKGRFTISRDNAKNTVYLQMNSPKPEDTAVSYCAAVNYEWNYGYDYWGPGTQVTVSS | low polyreactivity
QVQLVESGGALVQAGGSLRLRCAASGRIFRLYAMGWYRQAPGKERELVAAISSSGADTYYADSVKGRFTISSDNAKNTVDLQMNSLKPEETAVYYCAARTWHRYDYFGQGTQVTVSS | high polyreactivity
QVQLVESGGALVQAGGSLRLSCAASARTFIQNGMGWNRQEPGKERELVAAISYRGGTTSYADSVQGRFTISRDNAKNTVYLQMNSLKPEVTAVYYCAKRYTYYSYDYWGQGTQVTVSS | high polyreactivity
QVQLVESGGALVQAGGSLRLSCAASGFTLSAYAKGWYRQAPGKERELVAGISYTGGRTYYADSVKGRFTISRDNAKNTVYLQMNSLKPEDTAVYYCNKAWSGYYKYGYWGQGTQVTVSS | low polyreactivity
QVQLVESGGALVQAGGSLRLSCAASGGTFFSNAMGWYRQAPGKERELVAAISNDDGDTYYADSVKGRFTISRDNAKNTVYLQMNSLKPEDTAVYYCAVDYSYLHRTTFEYWGQGTQVTVSS | low polyreactivity
QVQLVESGGALVQAGGSLRLSCAASGRIFGVNAIGWYRQAPGKERELVADISSGGSTNYADSVKGRFTISRDNAKNTVYLQMNSLKPEDTAVYYCAARTLRAGYRASGVRRDYWGQGTQVTVSS | high polyreactivity
QVQLVESGGALVQAGGSLRLSCAASGRIFVVNAMGWYRQAPGKERELGAAISIRGTRTYYADSVKGRFTISRDNAKNTVYLQMNSLKPEDTAVYYCAADASYTEGMDYWGQGTQVTVSS | high polyreactivity
QVQLVESGGALVQAGGSLRLSCAASGRIIYKNAMRWYRQAPGKETELVATITYSDGTTYYADSVKGRFTISRDNAKNTVYLQMNSLKPEDTAVYYCAAQTDSVESDYWGQGTQVTVSS | low polyreactivity
QVQLVESGGALVQAGGSLRLSCAASGRTFNRYGMGRYRQAPGEERELVASITSGGSTNYADSVKGRFTISRDNAKNTVFLQMNSLKPEDTAVYYCAKRSIGRYPRTYDYWGQGTKVTVSS | low polyreactivity
QVQLVESGGALVQAGGSLRLSCAASGRTFTFNTMGWYRQAPGKERELVAAIDGDGTTNYADSVKGRFTISRDNAKNTVYLLMNSLKPEDTAVYYCAADFLYSFWYEPTFDYCGQGTQVTVSS | low polyreactivity
